Laboratory results taken from article PMC4741471 (Oncotarget, 2015).

Molecular target: the molecule itself
Test: non-reducing SDS-PAGE without heating

B1: cholera toxin B subunit (recombinant, His6-tagged CTB) (natural protein)
chain: TPQNITDLCAEYHNTQIYTLNDKIFSYTESLAGKREMAIITFKNGAIFQVEVPGSQHIDSQKKAIERMKDTLRIAYLTEAKVEKLCVWNNKTPHAIAAISMAN
stoichiometry N: 5
